tested on: MS2 coat protein; assay: apparent KD of MS2 coat protein; higher = weaker reporter binding; settings: Eterna round: R107; input ligand: theophylline 2 mM
Procedure: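 RNA-MaP round R107: designed RNA switches with theophylline, tryptophan, arginine or FMN aptamers are transcribed on-chip within common flanks. They are titrated with SNAP-549-labelled MS2 coat protein in RNA-MaP buffer (100 mM Tris pH 7.5, 80 mM KCl, 4 mM MgCl2), without ligand or with the indicated ligand. Median apparent KD per design.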

Row | Sequence | apparent KD of MS2 coat protein [nM]
1 | GGUGGCGUGACGGAUACCAGCCACCACCGUUAGACCACAUGAGGAUCACCCAUGUUGGGUGGCCCUUGGCAGCUGUCGUGCGGCG [#1 Same State - Theophylline B Attempt #18 (HarryS)] | 113
2 | ACAUGAGGAUCACCCAUGUAUUACCGGGAAGGAGCGCGUAAGGACGCAGGUAGGUCGCUCGGCGUCGUGCUGUAAAGCACGACGA [#1 Same State - Arginine A Attempt #24 (HarryS)] | 14.9
3 | GGAACAUGAGGAUCACCCAUGUCGAGUGGUCGAGGACCGGUACGGCCGCCACUCGACAUUGCUCAUAGGUAUAGCGUGAGAACGC [Same State - Tryptophan 1] | 961
4 | UUAAUCUAUAAUGAAAACAUUAUAGCAGAAGGAGCGUGAUAAAACACAGGUAGGUCGCUGAAGGGAACAUGAGGAUCACCCAUGU [AstrosSSArgA#12] | 39.4

same assay, conditions: Eterna round: R107; input ligand: tryptophan 2.4 mM

Row | Sequence | apparent KD of MS2 coat protein [nM]
5 | CUCUGAGUGAUCGCUCACUCAGAGGCGGAUACCAGCGAGGUCCAUCGCCCUUGGCAGCCGAACAUGAGGAUCACCCAUGUCGGUA [#1 Same State - Theophylline A Attempt #20 (HarryS)] | 8.98
6 | UUUUUUUUGGGAAGGAGCGGGAACAUGUGGAUCUCCCAUGUACAUGAGGAUCACCCAUGUACCCAGGUAGGUCGCUCAUUUUUUU [Exclusion - Arginine B] | 26
7 | UGGCGAGAAGGAAGGAGCGUCAGCUGAGUCACAUGAGGAUCACCCAUGUCGCACAUAGUGUGACAGGUAGGUCGCCUUCUGCCCU [Beinmain] | 156
8 | CAACAAGUAACUGAUACCAGUGUACUGACAUGAGGAUCACCCAUGUUGGGUUUUGUUGUACACCCUUGGCAGCAGAAUCUUGUUG [AstrosExyTheB#21] | 50
9 | UCGUUUGAGGCGGCCGCCACUGGUCUCAUGGUCAACAUGAGGAUCACCCAUGUAUCUUUGCCAAGCAGGACCGGGCCUCGAGCGA [#20 Exclusion Tryptophan B] | 14.8
10 | ACAGGAAACGGAAGGAGCGGAAUUGCAACAUGAGGAUCACCCAUGUUGAUCGUGAGUUGCUUCCAGGUAGGUCGCCGUUACCUAA [Erorve] | 30.4
11 | ACAUGAGGAUCACCCAUGUACAUAAGGGAAGGAGCGCGGUGAAACGCAGGUAGGUCGCCCAUAAUAACAAUAAAUAAAUUCAUGU [LeftA1] | 15.8
12 | ACACCGAAAGGUGCAUUUUCCUUUUCAGAUACCAGACUUUACGUUGUCCCUUGGCAGCUGUAUCACAUGAGGAUCACCCAUGUUG [JR_SSTheophyA_Sub012] | 15.9
13 | UCGGGCAGAGCGGCCGCCACUGUUUGGCGUGCGGAUGAAGGAACAUGAGGAUCACCCAUGUAGAUUAGGACCGGGCUUGCGGAGA [ddrmullin] | 15.9
14 | ACGUAAUGCAGAAGGAGCGUCUUUUUAAAACAUGAGGAUCACCCAUGUAAUAUUUAUGGGAGACAGGUAGGUCGCUGAAGUACGA [JR_SSArginiB_Sub006] | 25.3
15 | UGUAAAAUAACAGAUACCAGCGUGUUAUAAAACAUGAGGAUCACCCAUGUAGUGAUCAAGCGCCCUUGGCAGCUGGUAUUUUAUG [7.D] | 140
16 | AGACAUGAGGAUCACCCAUGUAGUACGGAUACCAGAUCCAGAUGCGUCCCUUGGCAGCUGUAGUACAGCGUUACGUCGCUCAUAG [Exclusion - Theophylline A (Freestyle 26)] | 28.4
17 | ACAUGAGGAUCACCCAUGUAAGGUCUUGAUACCAGACGAGAAGUAGUCCCUUGGCAGCAAAUACGUGAGGGUCACACAUGUGUAA [edsmullin] | 25.9
18 | UGUCAAUCGCCGGAUACCAGCCUAACUGAAGGAAAUCUAAACAUGAGGAUCACCCAUGUAGGCCCUUGGCAGCCGAGUAAGUACA [theeternabot_exclusion_MS2_Theo_B_15] | 35.7
19 | CGUAGGAUCGUGGAUACCAGUACCGCCCACGACAUGAGGAUCACCCAUGUAGGUAAUCUUUACCCUUGGCAGCCAUUUUUUUCUG [theeternabot_sameState_MS2_Theo_B_14] | 45.2
20 | ACUCGGUGUUUGUUGCUCCGAGUUUAUGAUACCAGUUAGUUUUAUGGCCCUUGGCAGCAUAGGACAUGAGGAUCACCCAUGUGUU [#03 SameState-TheophyllineA] | 32.2

Row | Sequence | apparent KD of MS2 coat protein [nM]
21 | CGUGAUCCCUGUGAUACCAGAAGUACAUGAGGAUCACCCAUGUCAAACACAAAACCAAGCUUCCCUUGGCAGCAUAGUCGUUAAG [Esmaenbiza] | 224
22 | UGAACAUGAGGAUCACCCAUGUAGUCAGAUACCAGACACUGCAUGGUCCCUUGGCAGCUGAAGAGCGUUUGCCAAAUAACGUUCA [Theo A SS t4] | 258
23 | AGCAGUACAACAGAUACCAGACUUUUAAUGCCUCUAAUUACAUGAGGAUCACCCAUGUUUGUCCCUUGGCAGCUGUUGUACUGCA [JR_ExcTheophyB_Sub010] | 124
24 | AUAGUCUAGAGUGAUACCAGACAACAUGAGGAUCACCCAUGUAGCAUAUGGUUAUCAUGAGUCCCUUGGCAGCACGCAUGUAUAG [JR_ExcTheophyB_Sub012] | 13.2
25 | UAAAUAAUCUGGGUGUAGGUAAUAACAGAUACCAGCCAGAUAACUGGCCCUUGGCAGCUGAAAACAUGAGGAUCACCCAUGUAAA [Mat - Same State Theophlline A - Mod of Eli - D19] | 57.4
26 | UUCGUUUGCGGAAGGAGCGACGGACAUCGGUGAACGACGGACAUGAGGAUCACCCAUGUACGUCAGGUAGGUCGCCGCUAAGAGU [Enbiceri] | 13.8
27 | ACACGGAAUGAUGGAUCACCUCGUGAAUCACGAGGACCGGUACGGCCGCCACUCGAAAACCGUGACCUGUACGAAAAGUGCAGGA | 56.5
28 | AAUAAACAUGAGGAUCACCCAUGUAGGGUGCGAGGACCGGUACGGCCGCCACUCGGGUGAAAACAUGAAAAUCACCCAUGUAAAA [Mat - Exclusion - Trytophan A - D24] | 232
29 | AGACAUGAGGAUCACCCAUGUAGUACGGAUACCAGAUCCAGAUGUAUCCCUUGGCAGCUGUGGUACAGCGUUACAUCGCUCCUAG [Exclusion - Theophylline A (Freestyle 20)] | 15.8
30 | GUAUGGAAACAUACUAGGGUAUCGUGAGAUACCAGUACAGAAAUGUACCCUUGGCAGCUCGCGCAUACAUGAGGAUCACCCAUGU [Ex Theophylline A 9] | 19.7
31 | GGUGGCGUGACGGAUACCAGCCACCACCGUUAGACCACAUGAGGAUCACCCAUGUUGGGUGGCCCUUGGCAGCUGUCGUGCGGCG [#1 Same State - Theophylline B Attempt #18 (HarryS)] | 337
32 | UUAUUUAUAAAUGAUACCAGCCGAUUGGCCGCAAAUCCUAACAUGAGGAUCACCCAUGUCGGCCCUUGGCAGCAUUUAUGGGUUU [XTheo B #28] | 65.1
33 | ACUUUGUCGGGUGAUACCAGCCUCGGCACAUCUCGUGCCGAACAUGAGGAUCACCCAUGUGGCCCUUGGCAGCACAUGACAAAUC [Isredior] | 423
34 | ACAUGAGGAUCACCCAUGUAUUACCGGGAAGGAGCGCGUAAGGACGCAGGUAGGUCGCUCGGCGUCGUGCUGUAAAGCACGACGA [#1 Same State - Arginine A Attempt #24 (HarryS)] | 15.3
35 | GGAACAUGAGGAUCACCCAUGUCGAGUGGUCGAGGACCGGUACGGCCGCCACUCGACAUUGCUCAUAGGUAUAGCGUGAGAACGC [Same State - Tryptophan 1] | 618
36 | UUAAUCUAUAAUGAAAACAUUAUAGCAGAAGGAGCGUGAUAAAACACAGGUAGGUCGCUGAAGGGAACAUGAGGAUCACCCAUGU [AstrosSSArgA#12] | 23.6

— the supplement of paper PMC9170038
